Among the data in article PMC3914216 are binding result and binding signal values, retold here.

Data set [1] addresses T1, HMGA1b (UniProt P17096-2 1-96). Description: competition.
The target in data set [2] is T1, HMGA1b. Kind of data set: EMSA. Background: A gel shift assay detects complexes by their altered migration in electrophoresis.
In data set [3] the target is T1, HMGA1b. Description: competition. The source holds these as a separate data set.

B1: CG10 (dsDNA)
DNA 1: GGGCCCCCCCCCCCGCGGCGGCCCCGCG
DNA 2: CGCGGGGCCGCCGCGGGGGGGGGGGCCC
As for B1, the binding result in data set [1] is listed as “no binding”.

B2: Mix10 (dsDNA)
DNA 1: GGGCGTGACTGAGCGCGGCGGCCCCGCG
DNA 2: CGCGGGGCCGCCGCGCTCAGTCACGCCC
With B2, the binding result in data set [1] is recorded as “no binding”.

B3: ATf10 (dsDNA)
DNA 1: CGCGGGGCCGCCGCGAAAAAAAAAAACCC
DNA 2: GGGTTTTTTTTTTTCGCGGCGGCCCCGCG
B3: in data set [2], the binding result is “binds”.

B4: ATs10 (dsDNA)
DNA 1: GGGTTTTTTTTTTCGCGGCGGCCCCGCG
DNA 2: CGCGGGGCCGCCGCGAAAAAAAAAACCC
modifications: phosphorothioate linkages after each of the 10 T (T4-T13) of strand 1; complement unmodified
Take B4: in data set [3], the binding signal is ~1 ratio to ATf10.
